Assay results: patent US20100105569A1 (AbbVie / Abbott, published 2010)

Experiments:
[1] = target: biotinylated HA tag peptide; assay: free scFv selected with 50 nM HA; translated without PDI
[2] = target: biotinylated HA tag peptide; assay: mRNA-scFv (ligated protein) selected with 50 nM HA; translated with PDI
[3] = target: biotinylated HA tag peptide; assay: mRNA-scFv selected with 50 nM HA; PDI: Yes, RT before selection with DTT
[4] = target: biotinylated HA tag peptide; assay: free scFv selected with 50 nM HA; translated with PDI
[5] = target: biotinylated HA tag peptide; assay: mRNA-scFv (ligated protein) selected with 50 nM HA; translated without PDI
[6] = target: biotinylated HA tag peptide; assay: mRNA-scFv selected with 50 nM HA; PDI: Yes, RT: No (same value as the 33rd table, row 11, column 5)
[7] = target: biotinylated HA tag peptide; assay: mRNA-scFv selected with 50 nM HA; PDI: No, RT: No (same value as the 33rd table, row 10, column 5)
[8] = target: biotinylated HA tag peptide; assay: mRNA-scFv selected with 50 nM HA; PDI: Yes, RT before selection without DTT
[9] = target: T1, human IL-12 (biotinylated) (human, UniProt P29459 23-219; P29460 23-328, biotinylated (site and subunit not stated)); assay: mRNA-scFv selected with 50 nM IL-12, bead capture, % of input 35S counts recovered
T1 construct: also called hIL-12
T1 sequence (looked up) 1: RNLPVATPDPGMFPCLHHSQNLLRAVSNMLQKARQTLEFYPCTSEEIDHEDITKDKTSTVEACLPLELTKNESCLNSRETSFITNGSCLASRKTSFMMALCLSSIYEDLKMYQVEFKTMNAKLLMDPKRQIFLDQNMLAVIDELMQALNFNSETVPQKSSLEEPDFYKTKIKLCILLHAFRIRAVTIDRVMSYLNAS
T1 sequence (looked up) 2: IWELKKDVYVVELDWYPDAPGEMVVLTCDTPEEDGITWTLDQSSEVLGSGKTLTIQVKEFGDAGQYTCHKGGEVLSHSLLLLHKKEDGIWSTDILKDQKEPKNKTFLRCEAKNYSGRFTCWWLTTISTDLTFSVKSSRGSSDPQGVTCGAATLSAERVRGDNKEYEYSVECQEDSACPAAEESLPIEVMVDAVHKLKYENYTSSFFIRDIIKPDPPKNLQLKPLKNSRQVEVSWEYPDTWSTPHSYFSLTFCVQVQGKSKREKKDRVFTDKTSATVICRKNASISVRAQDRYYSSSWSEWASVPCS

B1: 17/9 scFv (spacer form not stated) (scFv)
scFv: EVQLVESGGGLVQPGRSLRLSCAASGFTFDDYAMHWVRQAPGKGLDWVSAITWNSGHIDYADSVEGRFAVSRDNAKNALYLQMNSLRPEDTAVYYCTKASYLSTSSSLDNWGQGTLVTVSSGGGGSGGGGSGGGGSDIQMTQSPSSLSASIGDRVTITCRASQGIRNYLAWYQQKPGKAPKLLIYAASTLQSGVPSRFSGSGSGTDFTLTISSLQPEDVATYYCQKYNSAPYAFGQGTKVEIKR
Binder B1 has a % of Recovery, HA (50 nM) selection [1] of 3.3%, a % of Recovery, HA (50 nM) selection [2] of 12.4% and a % of Recovery, HA (50 nM) selection [3] of 2%. It also gave a % of Recovery, HA (50 nM) selection [4] of 30.5%, a % of Recovery, HA (50 nM) selection [5] of 2.3% and a % of Recovery, HA (50 nM) selection [6] of 12.4%. It also gave a % of Recovery, HA (50 nM) selection [7] of 2.3% and a % of Recovery, HA (50 nM) selection [8] of 9.4%.

B2: Y61-scGene3 (Y61 scFv Gene3) (scFv)
scFv: MQVQLVQSGGGVVQPGRSLRLSCAASGFTFSSYGMHWVRQAPGKGLEWVAFIRYDGSNKYYADSVKGRFTISRDNSKNTLYLQMKSLRAEDTAVYYCKTHGSHDNWGQGTMVTVSSGGGGSGGGGSGGGGSSYVLTQPPSVSGTPGQRVTISCSGGRSNIGSNTVKWYQQLPGTAPKLLIYGNDQRPSGVPDRFSGSKSGTSASLAITGVQAEDEADYYCQSYDRGTHPALLFGTGTKLTVLGQPKAAPSVTLPQPPVNAGGGSGGGSGGGSEGGGSEGGGSEGGGSEGGGSGGGSGSGDFDYEKMANANKGAMTENADENALQSDAKGKLDSVATDYDYKDDDDKASAI
notes: also called PF-y61scGene3
B2 was tested, and the “Percent of Recovery, IL-12 (50 nM selection)” value (from here on “Percent … (50 nM selection)”) [9] was 8%.

B3: Y61-scGene3pA (Y61 scFv Gene3PA) (scFv)
scFv: MQVQLVQSGGGVVQPGRSLRLSCAASGFTFSSYGMHWVRQAPGKGLEWVAFIRYDGSNKYYADSVKGRFTISRDNSKNTLYLQMKSLRAEDTAVYYCKTHGSHDNWGQGTMVTVSSGGGGSGGGGSGGGGSSYVLTQPPSVSGTPGQRVTISCSGGRSNIGSNTVKWYQQLPGTAPKLLIYGNDQRPSGVPDRFSGSKSGTSASLAITGVQAEDEADYYCQSYDRGTHPALLFGTGTKLTVLGQPKAAPSVTLPQPPVNAGGGSGGGSGGGSEGGGSEGGGSEGGGSEGGGSGGGSGSGDFDYEKMANANKGAMTENADENALQSDAKGKLDSVATDYDYKDDDDKASAI
For B3, the “Percent … (50 nM selection)” value [9] was 6.1%.

B4: Y61 scFv short (Y61-scCL-short) (scFv)
scFv: MQVQLVQSGGGVVQPGRSLRLSCAASGFTFSSYGMHWVRQAPGKGLEWVAFIRYDGSNKYYADSVKGRFTISRDNSKNTLYLQMKSLRAEDTAVYYCKTHGSHDNWGQGTMVTVSSGGGGSGGGGSGGGGSSYVLTQPPSVSGTPGQRVTISCSGGRSNIGSNTVKWYQQLPGTAPKLLIYGNDQRPSGVPDRFSGSKSGTSASLAITGVQAEDEADYYCQSYDRGTHPALLFGTGTKLTVLGQPKAAPSVTLDYKDDDDKASAI
notes: Human anti-hIL-12 scFv, in vitro translated with 35S-methionine; tested as free protein or as mRNA-scFv (ligated protein), as said under assay; also called Y61-CL-short
B4 was tested, and the “Percent … (50 nM selection)” value [9] was 21.1%.
